± gives the standard deviation of the averaged measurements.
These sequences were tested on Saccharomyces cerevisiae (assay: protein stability index of tFT-peptide fusion (C-terminal peptide) (PSI (0-1 scale)); higher = more stable (slower turnover)). Details: genetic background: wild type; temperature: 30 C.
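Note: PSI is a weighted mean of sequencing reads over stability bins, variants kept only with over 10 reads, mCherry proximal and sfGFP distal, peptide attached via GGGS linker.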

Sequence	protein stability index
AGAEHRERVGQS	0.896 ± 0.056
SEKGPRRSRVWD	0.745 ± 0.046
VMVTMGNMDSEA	0.635 ± 0.031
RFVCVSVCPVRV	0.487 ± 0.065
GWGGEGQNGSEG	0.638 ± 0.019
PGPPYPPPPLHP	0.716 ± 0.008
SPPHAPPPVPSL	0.751 ± 0.026
PSPPAPLSLLLP	0.645 ± 0.074
PHSLPPPTPPHS	0.629 ± 0.047
PPLPPPPSPALL	0.75 ± 0.019
PPPLPLPPITPT	0.53 ± 0.078
PSHTPNHTGYPD	0.681 ± 0.02
QKATRHRTRPRR	0.688 ± 0.12
PPPAPLRSLSTP	0.701 ± 0.024
SSTGRGRGCQEM	0.684 ± 0.0086
GSTLWGMAWGAR	0.694 ± 0.017
FLPPSVYAHPFP	0.743 ± 0.083
TPVVSVFFLPHY	0.673 ± 0.0095
VVPYRCQRLGDG	0.686 ± 0.061
VRAWIGDVENGV	0.574 ± 0.058
RWGVFRSLPSPS	0.622 ± 0.17
ARCLETKPVMNA	0.666 ± 0.03
KKRKKKKIIQTK	0.65 ± 0.11
GSSSSLDVFVVF	0.699 ± 0.085
LFVFSVCSWPRV	0.579 ± 0.04
VLYPVISVLTTL	0.629 ± 0.011

Sequence	protein stability index
GVAGGLLLRGGR	0.673 ± 0.13
SICRERRLSFYL	0.728 ± 0.052
LTDKHNETNINQ	0.6501 ± 0.0042
ESRRKRRVAGPN	0.7072 ± 0.0066
PFALPPPPPLVP	0.69 ± 0.0078
SPPRPPSLPPPG	0.67 ± 0.071
VFLQRIDDKSPY	0.712 ± 0.046
QYFRKRVLKELP	0.671 ± 0.074
GPPPPPPLPQLW	0.77 ± 0.037
ARLPVPPLLCPF	0.71 ± 0.061
VYSVDGGKTVLD	0.669 ± 0.028
FTCRRYVGFMGG	0.798 ± 0.025
PPPPPPQTPRPR	0.683 ± 0.061
CGVCSAGIFVGG	0.761 ± 0.026
DFYSLAWHFWFL	0.69 ± 0.073
SPVFSDFLLSLC	0.642 ± 0.028
IGGGPLWLVNNM	0.6748 ± 0.0054
PPPPPPPFCLAP	0.718 ± 0.0079
GNTPERVQRRWE	0.632 ± 0.086
AQYSTPSPMGQT	0.671 ± 0.044
CAAIHFLLPTYP	0.69 ± 0.054
PPSPLQGRICFV	0.698 ± 0.032
RPPPLPPRPSPP	0.752 ± 0.12
GWMLGAVRRGVI	0.694 ± 0.032
LGSCPPPPAPPP	0.638 ± 0.037
TRRVKWSWLLKP	0.7 ± 0.08

Sequence	protein stability index
SGLRPGAGDCSA	0.611 ± 0.07
PRPPTPPTTILN	0.652 ± 0.032
QKTSPWRQRGRL	0.778 ± 0.047
PLPSCTLCRPAL	0.695 ± 0.03
PPSPHPSLPPPR	0.668 ± 0.024
GGYDFRCPCCGV	0.723 ± 0.025
NMMTSVLEGGVG	0.699 ± 0.16
DRPSTNPISNVG	0.699 ± 0.015
WCKLLGGSVFGE	0.671 ± 0.023
GIGRGLGGLKSG	0.617 ± 0.026
AVGWGGLKGRVG	0.7 ± 0.037
RKAPLPDRGIPW	0.708 ± 0.017
FPELLFLFSPSF	0.723 ± 0.022
ILSCLLRSSFQC	0.606 ± 0.045
IFFRARRLEAHT	0.608 ± 0.019
GKLWTIIFPLFF	0.503 ± 0.035
LGCGDSRSMVSL	0.6875 ± 0.0033
RTHRKNRRYKKN	0.639 ± 0.0072
QTHRFLHVGKSL	0.621 ± 0.043
RPPNPPPALPPL	0.701 ± 0.056
PPPTPKITPMSI	0.6871 ± 0.0018
ARRAWPPPTPLF	0.719 ± 0.058
IFKNAWSSYRIE	0.714 ± 0.037
PSSPPAPLAPHS	0.731 ± 0.067
LFDLVVDSYGHI	0.753 ± 0.034
LSDDRTLFWISG	0.728 ± 0.13

Sequence	protein stability index
GGGGMGGCSDDG	0.742 ± 0.17
QIEQQKHKQPLI	0.6859 ± 0.0024
SSGLALGCPLGA	0.682 ± 0.062
LYRPFTAVPPSI	0.816 ± 0.082
VCGPCVESLETR	0.689 ± 0.059
INSKTRIQVTEN	0.73 ± 0.035
VRVCRSVGAGMT	0.649 ± 0.034
PFSRIFSPLSLL	0.68 ± 0.045
VAGSQYTAGGDV	0.635 ± 0.044
GGGAIFDRLLCL	0.6545 ± 0.0049
LSAVISHLGNSK	0.65058 ± 0.0002
LLAHLVIWAPSR	0.634 ± 0.091
SLVPCFLSFLYP	0.5752 ± 0.0017
PPFPPPCFPPPL	0.72 ± 0.0084
SIERNEGRKKLG	0.708 ± 0.064
LSPRTMYHAYPV	0.712 ± 0.067
RSSVTIIGDINK	0.619 ± 0.016
VLSFFQCSWVLL	0.574 ± 0.057
VWFGAGSYSFLC	0.5683 ± 0.0016
PPPLHPPPPPPA	0.704 ± 0.037
SLRPSELFRPLN	0.724 ± 0.014
SAMIKRIIGMHY	0.634 ± 0.048
AGFCFVALSLPL	0.629 ± 0.048
